Numbered stars: 1 amine (or outer) side, 2 acyl side, 3 side chain; on linkers, the order of the positions; unused ones are H or OH. Bridge positions count the residues as written; N and C are the ends. Ends that are not written are not given here. Phenylene(1,4-NHCOCH2)2 = O=C(C[*:1])Nc1ccc(NC(=O)C[*:2])cc1
Columns and labels:
[1] = molecular target: T1, PPIA (Homo sapiens, UniProt P62937); experiment: Phage Library Screening with NGS, PPIA; type: binding
T1 construct: Full length PPIA (residues 1-165) with an N-terminal 6×his-yBBR-TEV tag; 6×his-yBBR-TEV (N); made in house; host or cells: E. coli BL21 (DE3) CodonPlus RIPL
T1 sequence (P62937 whole entry, the tested form may be a part): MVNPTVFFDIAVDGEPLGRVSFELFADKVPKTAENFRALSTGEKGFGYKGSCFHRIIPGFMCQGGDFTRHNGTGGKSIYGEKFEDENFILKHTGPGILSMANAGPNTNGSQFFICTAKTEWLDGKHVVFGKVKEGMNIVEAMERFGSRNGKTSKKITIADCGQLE

[2] = molecular target: T2, MDM2 (Homo sapiens, UniProt Q00987); experiment: Naive Library Presenter Screening (phage, NGS), MDM2; type: binding; details: for interaction data, BLANK: Blank = Media only
T2 construct: made in house
T2 sequence (Q00987 25-109): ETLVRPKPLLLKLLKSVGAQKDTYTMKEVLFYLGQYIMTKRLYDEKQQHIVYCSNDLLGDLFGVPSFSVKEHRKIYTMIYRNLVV

[3] = target concentration 1000, first column
[4] = target concentration 1000, second column
[5] = MDM2 clusters (C82, C85), first column
[6] = MDM2 clusters (C82, C85), second column
[7] = MDM2 clusters (C82, C85), target concentration 10 nM
[8] = MDM2 clusters (C82, C85), target concentration 30 nM
[9] = MDM2 clusters (C82, C85), target concentration 100 nM
[10] = MDM2 clusters (C82, C85), target concentration 300 nM
[11] = MDM2 clusters (C82, C85), target concentration 1000 nM, first column
[12] = MDM2 clusters (C82, C85), target concentration 1000 nM, second column
[13] = MDM2 target concentration 10 nM
[14] = MDM2 target concentration 30 nM
[15] = MDM2 target concentration 100 nM
[16] = MDM2 target concentration 300 nM
[17] = MDM2 target concentration 1000 nM, first column
[18] = MDM2 target concentration 1000 nM, second column

Row | phage screen counts, Target Concentration 10 [1] | phage screen counts, Target Concentration 30 [1] | phage screen counts, Target Concentration 100 [1] | phage screen counts, Target Concentration 300 [1] | phage screen counts, Target Concentration 1000 [1, 3] | phage screen counts, Target Concentration 1000 [1, 4] | interaction data, BLANK [2, 5] | interaction data, BLANK [2, 6] | interaction data at Target Concentration 10 [2, 7] | interaction data at Target Concentration 30 [2, 8] | interaction data at Target Concentration 100 [2, 9] | interaction data at Target Concentration 300 [2, 10] | interaction data at Target Concentration 1000 [2, 11] | interaction data at Target Concentration 1000 [2, 12] | interaction data at Target Concentration 10 [2, 13] | interaction data at Target Concentration 30 [2, 14] | interaction data at Target Concentration 100 [2, 15] | interaction data at Target Concentration 300 [2, 16] | interaction data at Target Concentration 1000 [2, 17] | interaction data at Target Concentration 1000 [2, 18] | Sequence
1 | 0 | 0 | 0 | 3 | 25 | 5 | – | – | – | – | – | – | – | – | – | – | – | – | – | – | PDCHIASWFCS
2 | 0 | 0 | 0 | 0 | 11 | 10 | – | – | – | – | – | – | – | – | – | – | – | – | – | – | PDCHIAAWYCR
3 | 0 | 52 | 273 | 416 | 616 | 456 | – | – | – | – | – | – | – | – | – | – | – | – | – | – | DPAQHDCHVAAYQCIWE
4 | 0 | 1 | 6 | 6 | 11 | 7 | – | – | – | – | – | – | – | – | – | – | – | – | – | – | DPARADCRVAAYWCYHQ
5 | 6 | 10 | 176 | 197 | 190 | 227 | – | – | – | – | – | – | – | – | – | – | – | – | – | – | DPASYDCHVAAYFCNFA
6 | 0 | 0 | 0 | 0 | 10 | 29 | – | – | – | – | – | – | – | – | – | – | – | – | – | – | PTCHVQAWYCW
7 | – | – | – | – | – | – | 0 | 0 | 0 | 0 | 25 | 37 | 34 | 29 | – | – | – | – | – | – | DPAAQECFRAAWRCMQD (linker 7-14 via Phenylene(1,4-NHCOCH2)2 (inferred))
8 | – | – | – | – | – | – | 0 | 0 | 0 | 0 | 9 | 6 | 14 | 8 | – | – | – | – | – | – | DPARVHCNQAAFMCHWV (DPARVHCNQAAFMCHWV-NH2; linker 7-14 via Phenylene(1,4-NHCOCH2)2 (inferred))
9 | – | – | – | – | – | – | – | – | – | – | – | – | – | – | 11 | 154 | 643 | 1045 | 776 | 1088 | DPANHACFQAAWDCQFF (linker 7-14 via Phenylene(1,4-NHCOCH2)2 (inferred))
10 | – | – | – | – | – | – | 0 | 0 | 0 | 0 | 9 | 7 | 8 | 11 | – | – | – | – | – | – | DPAHNLCFDAAWWCHWQ (linker 7-14 via Phenylene(1,4-NHCOCH2)2 (inferred))
11 | – | – | – | – | – | – | 0 | 0 | 0 | 8 | 28 | 27 | 33 | 14 | – | – | – | – | – | – | DPASAECFFAAWQCIAT (DPASAECFFAAWQCIAT-NH2; linker 7-14 via Phenylene(1,4-NHCOCH2)2 (inferred))
12 | – | – | – | – | – | – | 0 | 0 | 0 | 0 | 24 | 36 | 24 | 32 | – | – | – | – | – | – | DPALMQCTEAAFWCYWE (linker 7-14 via Phenylene(1,4-NHCOCH2)2 (inferred); not fully specified (C-terminus))
13 | – | – | – | – | – | – | 0 | 0 | 1 | 15 | 170 | 133 | 176 | 188 | – | – | – | – | – | – | DPAETDCSQAAFWCYWQ (linker 7-14 via Phenylene(1,4-NHCOCH2)2 (inferred))
14 | – | – | – | – | – | – | 0 | 0 | 0 | 0 | 23 | 56 | 53 | 69 | – | – | – | – | – | – | DPAAVQCNTAAFQCYWF (linker 7-14 via Phenylene(1,4-NHCOCH2)2 (inferred))
15 | – | – | – | – | – | – | – | – | – | – | – | – | – | – | 7 | 11 | 0 | 0 | 5 | 6 | DPADSECFQAASDCQYW (linker 7-14 via Phenylene(1,4-NHCOCH2)2 (inferred))
16 | – | – | – | – | – | – | 0 | 0 | 0 | 42 | 149 | 156 | 202 | 149 | – | – | – | – | – | – | DPAHRQCFTAAWRCMMT (linker 7-14 via Phenylene(1,4-NHCOCH2)2 (inferred))
17 | – | – | – | – | – | – | 0 | 0 | 0 | 1 | 94 | 107 | 120 | 114 | – | – | – | – | – | – | DPARQDCFSAAWMCMAI (DPARQDCFSAAWMCMAI-NH2; linker 7-14 via Phenylene(1,4-NHCOCH2)2 (inferred))
18 | – | – | – | – | – | – | – | – | – | – | – | – | – | – | 1 | 0 | 51 | 22 | 20 | 23 | DPADNRCFQAAWDCAFW (linker 7-14 via Phenylene(1,4-NHCOCH2)2 (inferred))
19 | – | – | – | – | – | – | 0 | 0 | 0 | 19 | 32 | 48 | 65 | 62 | – | – | – | – | – | – | DPAYTQCSDAAFMCWWW (linker 7-14 via Phenylene(1,4-NHCOCH2)2 (inferred))
20 | – | – | – | – | – | – | 0 | 0 | 0 | 0 | 30 | 30 | 30 | 70 | – | – | – | – | – | – | DPATESCEDAAFWCHWI (DPATESCEDAAFWCHWI-NH2; linker 7-14 via Phenylene(1,4-NHCOCH2)2 (inferred))
21 | – | – | – | – | – | – | 0 | 0 | 0 | 2 | 33 | 74 | 57 | 82 | – | – | – | – | – | – | DPAHYECTDAAFECYWF (linker 7-14 via Phenylene(1,4-NHCOCH2)2 (inferred))
22 | – | – | – | – | – | – | 0 | 0 | 0 | 78 | 135 | 155 | 110 | 150 | – | – | – | – | – | – | DPAYSDCFQAAWTCMIH (linker 7-14 via Phenylene(1,4-NHCOCH2)2 (inferred))
23 | – | – | – | – | – | – | – | – | – | – | – | – | – | – | 3 | 0 | 27 | 92 | 65 | 84 | DPAFDSCFSAAWDCMYW (linker 7-14 via Phenylene(1,4-NHCOCH2)2 (inferred))
24 | – | – | – | – | – | – | 0 | 0 | 0 | 31 | 138 | 165 | 94 | 231 | – | – | – | – | – | – | DPASQDCFSAAWQCLQT (DPASQDCFSAAWQCLQT-NH2; linker 7-14 via Phenylene(1,4-NHCOCH2)2 (inferred))

— US20240376151A1, “STAPLED PEPTIDES AND METHODS THEREOF” (FOG PHARMACEUTICALS, INC., priority 2022, published 2024)
